Source: patent publication US20190359687A1 (Bayer, published 2019)

Legend:
[1] = target: T1, native human glycophorin A protein (human, UniProt P02724 20-150); test: ELISA, Fab on coated native human GPA
T1 construct: mature; also called Hu-nat GPA
T1 sequence (looked up): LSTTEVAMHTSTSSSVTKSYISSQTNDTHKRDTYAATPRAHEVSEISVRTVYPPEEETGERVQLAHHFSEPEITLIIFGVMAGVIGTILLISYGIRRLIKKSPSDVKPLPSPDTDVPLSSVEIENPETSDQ

[2] = target: T2, Cynomolgus monkey glycophorin A on Cynomolgus monkey red blood cells or red blood cell membranes (Cynomolgus monkey); test: ELISA, Fab on coated cyno RBC membranes
T2 construct: whole, on cells; also called Cyno RBC; Cynomolgus monkey RBC membranes

[3] = target: T3, human glycophorin A on human red blood cells or red blood cell membranes (human, UniProt P02724 20-150); test: ELISA, Fab on coated human RBC membranes
T3 construct: whole, on cells; also called hRBC; human RBC membranes
T3 sequence (looked up): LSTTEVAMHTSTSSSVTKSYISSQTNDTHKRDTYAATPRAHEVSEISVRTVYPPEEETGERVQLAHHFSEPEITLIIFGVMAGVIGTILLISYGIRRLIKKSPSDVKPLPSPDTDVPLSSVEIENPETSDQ

[4] = target: T4, Cynomolgus monkey recombinant glycophorin A ectodomain (Cynomolgus monkey); test: ELISA, Fab on coated recombinant cyno GPA ectodomain
T4 construct: extracellular domain

[5] = target: T3, human glycophorin A on human red blood …; test: SPR (Biacore), Fab over human RBC membranes, 1:1 fit;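 also: human RBC membrane preparations captured on an L1 sensor surface, with antibody passed over them as analyte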
Method: Kinetic analysis of the antibody binding to human red blood cell membranes was also performed using surface plasmon resonance (SPR) using a Biacore instrument. In this assay membranes prepared from human red blood cells were attached to a L1 sensor matrix and antibodies were flowed over the RBC membranes.

[6] = target: T5, recombinant human glycophorin A ectodomain protein (human, UniProt P02724 20-91); test: ELISA, Fab on coated recombinant human GPA ectodomain
T5 construct: 72 amino acids of the extracellular region; also called Hu-rec GPA
T5 sequence: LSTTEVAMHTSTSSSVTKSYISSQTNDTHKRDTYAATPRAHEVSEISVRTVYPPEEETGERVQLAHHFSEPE

[7] = target: T6, Cynomolgus monkey glycophorin A on Cynomolgus monkey red blood cells (Cynomolgus monkey); test: partition to Cyno RBC, human HemA plasma, 1 min;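 also: FVIII fusion spiked at 1 IU/mL into RBC suspension at whole-blood density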
T6 construct: whole, on cells; also called Cyno GPA; Cyno RBC
Method: (§1) To evaluate partition to cynomolgus monkey or human red blood cells, whole blood was draw from Cynomolgus monkey or normal human volunteers in to anticoagulant with 4% sodium citrate (Sigma, St Louis, Mo.). The red blood cells were purified by layering the whole blood on to ficoll followed by low speed centrifugation. The supernatant containing plasma, platelets and white blood cells was discarded and the red blood cell pellet was resuspended in 10 pellet volumes of PBS (50 mM Phosphate buffer, pH7.4, 150 mM NaCl). The red blood cells were then pelleted by slow speed centrifugation and the red blood cells re-suspended in 10 volumes of PBS. This washing step was repeated 4 more times and the red blood cells finally resuspended in a volume of plasma from Hemophilia patients with less than 1% of normal levels of FVIII (GeorgeKing Bio-Medical, Overland Park, Kans.) to generate a total volume equal to the initial blood volume such that the RBC density was equal to that of normal whole blood. BDD and RBC targeted FVIII molecules were then spiked into RBC suspension in HemA plasma at 1 IU/mL, and incubated at room temperature for 2-3 hours with gentle rotation. […] An additional control was performed in which BDD or RBC targeted FVIII molecules were added at 11U/ml into the same human hemophilia A plasma and incubated for 5 minutes and 180 mins. These samples were used to determine the input FVIII activity in the presence of plasma which was used to calculate the percentage of the molecule that was bound to RBC. All plasma samples were then assayed together for FVIII activity using the Coatest SP assay (DiaPharma, Columbus, Ohio). The assay was performed following the manufacturer's instructions in a 96-well plate format. […] The plate was incubated at 37° C. for 10 minutes with shaking between each reagent addition.

[8] = target: T6, Cynomolgus monkey glycophorin A on …; test: partition to Cyno RBC, human HemA plasma, 5 min;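 also: FVIII fusion spiked at 1 IU/mL into RBC suspension at whole-blood density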
[9] = target: T7, human glycophorin A on human red blood cells (human, UniProt P02724 20-150); test: partition to human RBC, human HemA plasma, 1 min
T7 construct: whole, on cells; also called human GPA; huGPA
T7 sequence (looked up): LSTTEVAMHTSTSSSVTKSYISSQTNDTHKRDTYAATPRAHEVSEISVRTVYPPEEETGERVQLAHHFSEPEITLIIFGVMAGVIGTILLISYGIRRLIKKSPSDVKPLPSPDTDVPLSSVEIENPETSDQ
Method: (§2) The supernatant containing plasma, platelets and white blood cells was discarded and the red blood cell pellet was resuspended in 10 pellet volumes of PBS (50 mM Phosphate buffer, pH7.4, 150 mM NaCl). The red blood cells were then pelleted by slow speed centrifugation and the red blood cells re-suspended in 10 volumes of PBS. This washing step was repeated 4 more times and the red blood cells finally resuspended in a volume of plasma from Hemophilia patients with less than 1% of normal levels of FVIII (GeorgeKing Bio-Medical, Overland Park, Kans.) to generate a total volume equal to the initial blood volume such that the RBC density was equal to that of normal whole blood. BDD and RBC targeted FVIII molecules were then spiked into RBC suspension in HemA plasma at 1 IU/mL, and incubated at room temperature for 2-3 hours with gentle rotation. […] An additional control was performed in which BDD or RBC targeted FVIII molecules were added at 11U/ml into the same human hemophilia A plasma and incubated for 5 minutes and 180 mins. These samples were used to determine the input FVIII activity in the presence of plasma which was used to calculate the percentage of the molecule that was bound to RBC. All plasma samples were then assayed together for FVIII activity using the Coatest SP assay (DiaPharma, Columbus, Ohio). The assay was performed following the manufacturer's instructions in a 96-well plate format. […] The plate was incubated at 37° C. for 10 minutes with shaking between each reagent addition. […] The amount of FVIII activity in the plasma reflects the amount of unbound FVIII. The FVIII activity of the same molecule spiked in to Hemophilia A plasma alone (no RBC) and incubated for 5 minutes was normalized to 100%.

[10] = target: T7, human glycophorin A on human red blood …; test: partition to human RBC, human HemA plasma, 5 min
Method: as §2

[11] = target: T6, Cynomolgus monkey glycophorin A on …; test: partition to Cyno RBC, human HemA plasma, 15 min;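 also: FVIII fusion spiked at 1 IU/mL into RBC suspension at whole-blood density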
Method: as §1

[12] = target: T6, Cynomolgus monkey glycophorin A on …; test: partition to Cyno RBC, human HemA plasma, 30 min;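 also: FVIII fusion spiked at 1 IU/mL into RBC suspension at whole-blood density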
[13] = target: T6, Cynomolgus monkey glycophorin A on …; test: partition to Cyno RBC, human HemA plasma, 60 min;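 also: FVIII fusion spiked at 1 IU/mL into RBC suspension at whole-blood density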
[14] = target: T7, human glycophorin A on human red blood …; test: partition to human RBC, human HemA plasma, 15 min
Method: as §2

[15] = target: T7, human glycophorin A on human red blood …; test: partition to human RBC, human HemA plasma, 30 min
[16] = target: T7, human glycophorin A on human red blood …; test: partition to human RBC, human HemA plasma, 60 min
Method: as §2

[17] = target: T6, Cynomolgus monkey glycophorin A on …; test: partition to Cyno RBC, human HemA plasma, 120 min;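 also: FVIII fusion spiked at 1 IU/mL into RBC suspension at whole-blood density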
[18] = target: T7, human glycophorin A on human red blood …; test: partition to human RBC, human HemA plasma, 120 min
Method: as §2

[19] = target: T7, human glycophorin A on human red blood …; test: partition to human RBC, human HemA plasma, 120 min; remark: listed apart in the source
[20] = target: T7, human glycophorin A on human red blood …; test: partition to human RBC, vWF deficient plasma, 1 min
[21] = target: T7, human glycophorin A on human red blood …; test: partition to human RBC, vWF deficient plasma, 5 min
[22] = target: T7, human glycophorin A on human red blood …; test: partition to human RBC, vWF deficient plasma, 15 min
[23] = target: T7, human glycophorin A on human red blood …; test: partition to human RBC, vWF deficient plasma, 30 min
[24] = target: T7, human glycophorin A on human red blood …; test: partition to human RBC, vWF deficient plasma, 60 min
[25] = target: T7, human glycophorin A on human red blood …; test: partition to human RBC, vWF deficient plasma, 120 min
[26] = target: T8, glycophorin A peptide GP5 (human, biotin at the N-terminus); test: Octet, GP5 peptide on the probe, fusion protein in solution, 1:1 fit
T8 construct: Residues 42 to 61 of the human glycophorin A extracellular domain
T8 peptide: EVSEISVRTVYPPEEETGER

B1: TPP-5702, Hu6C12-24 Fab variant VL: (S24R, A26S, S49A, P54Q, F95Y) (Fab, V domains shown)
VH: EVQLVQSGAEVKKPGASVKVSCKASGYTFTTYTIHWVRQAPGQGLEWIGYINPSSDYTRYNPKFKDRVTLTTDKSTSTAYMELRSLRSDDTAVYYCQTGTRDYWGQGTTVTVSS
VL: DIQLTQSPSFLSASVGDRVTITCRASSSVSYIYWFQQKPGKAPKLLIYATSTLQSGVPSRFSGSGSGTEYTLTISSLQPEDFATYYCHQRNSFPYTFGQGTKLEIKR
notes: Built on the parental Fab TPP-4935
binding in ELISA relative to parental Fab [1]: 5.2 relative to parental Fab
binding in ELISA relative to parental Fab [2]: 1.1 relative to parental Fab
binding in ELISA relative to parental Fab [3]: 10.2 relative to parental Fab
binding in ELISA relative to parental Fab [4]: 1.1 relative to parental Fab
Kd [5]: 170 nM
koff [5]: 0.11 s⁻¹
kon [5]: 650000 M⁻¹ s⁻¹
binding in ELISA relative to parental Fab [6]: 4.3 relative to parental Fab

B2: TPP-5841, Hu6C12-24 Fab variant VL: (S24R, A26S, S49A, P54Q, F95Y); VH: (D66G, L70M) (Fab, V domains shown)
VH: EVQLVQSGAEVKKPGASVKVSCKASGYTFTTYTIHWVRQAPGQGLEWIGYINPSSDYTRYNPKFKGRVTMTTDKSTSTAYMELRSLRSDDTAVYYCQTGTRDYWGQGTTVTVSS
VL: DIQLTQSPSFLSASVGDRVTITCRASSSVSYIYWFQQKPGKAPKLLIYATSTLQSGVPSRFSGSGSGTEYTLTISSLQPEDFATYYCHQRNSFPYTFGQGTKLEIKR
notes: as for B1
binding in ELISA relative to parental Fab [1]: 5.8 relative to parental Fab
binding in ELISA relative to parental Fab [2]: 2.1 relative to parental Fab
binding in ELISA relative to parental Fab [3]: 11.9 relative to parental Fab
binding in ELISA relative to parental Fab [4]: 1.2 relative to parental Fab
Kd [5]: 3.3 nM
koff [5]: 0.0043 s⁻¹
kon [5]: 1.3e+06 M⁻¹ s⁻¹
binding in ELISA relative to parental Fab [6]: 4.7 relative to parental Fab

B3: TPP-5839, Hu6C12-24 Fab variant VL: (S24R, A26S, S49A, P54Q, F95Y); VH: (I48M, D66G, L70M, T72R) (Fab, V domains shown)
VH: EVQLVQSGAEVKKPGASVKVSCKASGYTFTTYTIHWVRQAPGQGLEWMGYINPSSDYTRYNPKFKGRVTMTRDKSTSTAYMELRSLRSDDTAVYYCQTGTRDYWGQGTTVTVSS
VL: DIQLTQSPSFLSASVGDRVTITCRASSSVSYIYWFQQKPGKAPKLLIYATSTLQSGVPSRFSGSGSGTEYTLTISSLQPEDFATYYCHQRNSFPYTFGQGTKLEIKR
notes: as for B1
binding in ELISA relative to parental Fab [1]: 5.8 relative to parental Fab
binding in ELISA relative to parental Fab [2]: 2.3 relative to parental Fab
binding in ELISA relative to parental Fab [3]: 5.8 relative to parental Fab
binding in ELISA relative to parental Fab [4]: 1.2 relative to parental Fab
Kd [5]: 1.6 nM
koff [5]: 0.0035 s⁻¹
kon [5]: 2.1e+06 M⁻¹ s⁻¹
binding in ELISA relative to parental Fab [6]: 4.7 relative to parental Fab

B4: TPP-5835, Hu6C12-24 Fab variant VL: (S24R, A26S, S49A, P54Q, F95Y); VH: (I48M, L70M) (Fab, V domains shown)
VH: EVQLVQSGAEVKKPGASVKVSCKASGYTFTTYTIHWVRQAPGQGLEWMGYINPSSDYTRYNPKFKDRVTMTTDKSTSTAYMELRSLRSDDTAVYYCQTGTRDYWGQGTTVTVSS
VL: DIQLTQSPSFLSASVGDRVTITCRASSSVSYIYWFQQKPGKAPKLLIYATSTLQSGVPSRFSGSGSGTEYTLTISSLQPEDFATYYCHQRNSFPYTFGQGTKLEIKR
notes: as for B1
binding in ELISA relative to parental Fab [1]: 5.2 relative to parental Fab
binding in ELISA relative to parental Fab [2]: 1.4 relative to parental Fab
binding in ELISA relative to parental Fab [3]: 10.3 relative to parental Fab
binding in ELISA relative to parental Fab [4]: 1.1 relative to parental Fab
binding in ELISA relative to parental Fab [6]: 4.3 relative to parental Fab

B5: TPP-8741 FVIII-scFv fusion protein (other)
chain: ATRRYYLGAVELSWDYMQSDLGELPVDARFPPRVPKSFPFNTSVVYKKTLFVEFTDHLFNIAKPRPPWMGLLGPTIQAEVYDTVVITLKNMASHPVSLHAVGVSYWKASEGAEYDDQTSQREKEDDKVFPGGSHTYVWQVLKENGPMASDPLCLTYSYLSHVDLVKDLNSGLIGALLVCREGSLAKEKTQTLHKFILLFAVFDEGKSWHSETKNSLMQDRDAASARAWPKMHTVNGYVNRSLPGLIGCHRKSVYWHVIGMGTTPEVHSIFLEGHTFLVRNHRQASLEISPITFLTAQTLLMDLGQFLLFCHISSHQHDGMEAYVKVDSCPEEPQLRMKNNEEAEDYDDDLTDSEMDVVRFDDDNSPSFIQIRSVAKKHPKTWVHYIAAEEEDWDYAPLVLAPDDRSYKSQYLNNGPQRIGRKYKKVRFMAYTDETFKTREAIQHESGILGPLLYGEVGDTLLIIFKNQASRPYNIYPHGITDVRPLYSRRLPKGVKHLKDFPILPGEIFKYKWTVTVEDGPTKSDPRCLTRYYSSFVNMERDLASGLIGPLLICYKESVDQRGNQIMSDKRNVILFSVFDENRSWYLTENIQRFLPNPAGVQLEDPEFQASNIMHSINGYVFDSLQLSVCLHEVAYWYILSIGAQTDFLSVFFSGYTFKHKMVYEDTLTLFPFSGETVFMSMENPGLWILGCHNSDFRNRGMTALLKVSSCDKNTGDYYEDSYEDISAYLLSKNNAIEPRSFSQNGGGGSTGGTGGSSGGGTGSGGGGTGGSGGTDIQLTQSPSFLSASVGDRVTITCRASSSVRYIYWFQQKPGKAPKLLIYATSFRQSGVPSRFSGSGSGTEYTLTISSLQPEDFATYYCHQRNSFPYTFGQGTKLEIKGGGGSGGGGSGGGGSGGGGSEVQLVQSGAEVKKPGASVKVSCKASGYTFTTYAIHWVRQAPGQGLEWMGYINPSSGYTRYNPKFKGRVTMTRDKSTSTAYMELRSLRSDDTAVYYCWTGTRDYWGQGTTVTVSSGGGGSQNPPVLKRHQREITRTTLQSDQEEIDYDDTISVEMKKEDFDIYDEDENQSPRSFQKKTRHYFIAAVERLWDYGMSSSPHVLRNRAQSGSVPQFKKVVFQEFTDGSFTQPLYRGELNEHLGLLGPYIRAEVEDNIMVTFRNQASRPYSFYSSLISYEEDQRQGAEPRKNFVKPNETKTYFWKVQHHMAPTKDEFDCKAWAYFSDVDLEKDVHSGLIGPLLVCHTNTLNPAHGRQVTVQEFALFFTIFDETKSWYFTENMERNCRAPCNIQMEDPTFKENYRFHAINGYIMDTLPGLVMAQDQRIRWYLLSMGSNENIHSIHFSGHVFTVRKKEEYKMALYNLYPGVFETVEMLPSKAGIWRVECLIGEHLHAGMSTLFLVYSNKCQTPLGMASGHIRDFQITASGQYGQWAPKLARLHYSGSINAWSTKEPFSWIKVDLLAPMIIHGIKTQGARQKFSSLYISQFIIMYSLDGKKWQTYRGNSTGTLMVFFGNVDSSGIKHNIFNPPIIARYIRLHPTHYSIRSTLRMELMGCDLNSCSMPLGMESKAISDAQITASSYFTNMFATWSPSKARLHLQGRSNAWRPQVNNPKEWLQVDFQKTMKVTGVTTQGVKSLLTSMYVKEFLISSSQDGHQWTLFFQNGKVKVFQGNQDSFTPVVNSLDPPLLTRYLRIHPQSWVHQIALRMEVLGCEAQDLY
notes: The entry is the mature protein; mostly a 2 chain molecule; also called BDD-Bdom scFv; PPB 6559
% bound to Cyno RBC [7]: 0%
% bound to Cyno RBC [8]: -19.3%
percentage bound to human RBC [9]: 0%
percentage bound to human RBC [10]: 13.8%
% bound to Cyno RBC [11]: -12.5%
% bound to Cyno RBC [12]: -1.9%
% bound to Cyno RBC [13]: -9.8%
percentage bound to human RBC [14]: 16.3%
percentage bound to human RBC [15]: 20.5%
percentage bound to human RBC [16]: 37.1%
% bound to Cyno RBC [17]: -1.9%
percentage bound to human RBC [18]: 52.8%
percentage bound to human RBC [19]: 52.8%
percentage bound to human RBC [20]: 35.1%
percentage bound to human RBC [21]: 67.9%
percentage bound to human RBC [22]: 88.3%
percentage bound to human RBC [23]: 92.4%
percentage bound to human RBC [24]: 93.3%
percentage bound to human RBC [25]: 93%
Kd [26]: 13.3 nM
koff [26]: 0.00465 s⁻¹
kon [26]: 351000 M⁻¹ s⁻¹
